{
  "source": "patent US20240368285A1",
  "about": "(HEFEI TG IMMUNOPHARMA, published 2024)",
  "binders": {"B1": {"name": "affinity maturation antibody h5A1002 (antibody, V domains shown)", "VH": "QVQLQESGPGLVKPSETLSLTCTVSGFSLTTYGGHWIRQPPGKGLEWIGMIWTDGWTDYNAAFISRVTISVDTSKNQFSLKLSSVTAADTAVYYCARKGHGYYYAMDYWGQGTLVTVSS", "VL": "EIVLTQSPGTLSLSPGERATLSCTASSSVSSSYLHWYQQKPGQAPRLLIYSTSNLISGIPDRFSGSGSGTDFTLTISRLEPEDFAVYYCHQYHRSPFTFGQGTKLEIKR", "notes": "Human IgG1, kappa; also called h5A1002-hIgG1"}},
  "key": {"MICA008α3-Fc [1]": {"molecular_target": "T1, MICA008α3-Fc (human)", "T1 construct": "also called MICA*008-Fc; domain α3 of MICA-008 Fc fusion protein", "T1 sequence (chain, as listed by the source limits assumed)": "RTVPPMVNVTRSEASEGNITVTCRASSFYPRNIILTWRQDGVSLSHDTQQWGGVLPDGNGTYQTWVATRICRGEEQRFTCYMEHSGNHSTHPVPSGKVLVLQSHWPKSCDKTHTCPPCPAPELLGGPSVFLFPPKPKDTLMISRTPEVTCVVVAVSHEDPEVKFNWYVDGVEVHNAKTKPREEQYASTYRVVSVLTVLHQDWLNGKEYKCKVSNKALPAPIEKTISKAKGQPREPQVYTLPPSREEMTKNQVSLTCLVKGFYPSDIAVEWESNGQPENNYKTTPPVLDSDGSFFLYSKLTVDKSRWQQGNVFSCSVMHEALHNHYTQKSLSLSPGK", "assay": "ELISA on coated MICA*008 α3-Fc (1 µg/ml), HRP anti-human Fab secondary, OD450", "experimental": "(§1) After the antibodies were added, signal intensity was used for judging the binding characteristics of the antibodies and MICA and MICB.\n(§2) The fusion proteins (produced in the Applicant's laboratory; an amino acid sequence of MICA002α3-Fc is as set forth in SEQ ID NO: 22; an amino acid sequence of MICA005α3-Fc is as set forth in SEQ ID NO: 24; an amino acid sequence of MICA008α3-Fc is as set forth in SEQ ID NO: 25; an amino acid sequence of MICA004α3-Fc is as set forth in SEQ ID NO: 23; an amino acid sequence of MICB001α3-Fc is as set forth in SEQ ID NO: 26; and an amino acid sequence of MICB005α3-Fc is as set forth in SEQ ID NO: 27) were diluted to a concentration of 1 μg/ml with PBS and then added into a 96-well plate in a volume of 100 μl/well. The plate was placed at 4° C. overnight. The PBS in the 96-well plate was removed by sucking. After the plate was washed with PBST (that is, PBS having a pH value of 7.2 included 0.1 volume % of Tween 20) for 6 times, PBS containing 10% of BSA was added in a volume of 200 μl/well. The plate was incubated at 37° C. for 2 hours for blocking. The blocking solution was removed. […]"}, "MICB005α3-Fc": {"molecular_target": "T2, MICB005α3-Fc", "T2 construct": "also called MICB*005-Fc; domain α3 of MICB-005 Fc fusion protein", "T2 sequence (chain, as listed by the source limits assumed)": "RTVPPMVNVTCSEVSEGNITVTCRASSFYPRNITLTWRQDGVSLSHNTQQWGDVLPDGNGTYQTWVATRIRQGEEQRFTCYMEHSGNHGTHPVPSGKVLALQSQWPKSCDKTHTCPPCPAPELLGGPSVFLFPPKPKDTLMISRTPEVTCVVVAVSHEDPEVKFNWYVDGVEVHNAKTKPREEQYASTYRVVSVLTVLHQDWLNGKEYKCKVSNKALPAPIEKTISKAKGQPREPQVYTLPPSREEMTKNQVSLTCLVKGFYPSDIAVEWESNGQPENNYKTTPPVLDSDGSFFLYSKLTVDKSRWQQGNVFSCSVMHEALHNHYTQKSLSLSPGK", "assay": "ELISA on coated MICB*005 α3-Fc (1 µg/ml), HRP anti-human Fab secondary, OD450", "experimental": "as §1, §2"}, "MICA005α3-Fc": {"molecular_target": "T3, MICA005α3-Fc (human)", "T3 construct": "also called MICA*005-Fc; domain α3 of MICA-005 Fc fusion protein", "T3 sequence (chain, as listed by the source limits assumed)": "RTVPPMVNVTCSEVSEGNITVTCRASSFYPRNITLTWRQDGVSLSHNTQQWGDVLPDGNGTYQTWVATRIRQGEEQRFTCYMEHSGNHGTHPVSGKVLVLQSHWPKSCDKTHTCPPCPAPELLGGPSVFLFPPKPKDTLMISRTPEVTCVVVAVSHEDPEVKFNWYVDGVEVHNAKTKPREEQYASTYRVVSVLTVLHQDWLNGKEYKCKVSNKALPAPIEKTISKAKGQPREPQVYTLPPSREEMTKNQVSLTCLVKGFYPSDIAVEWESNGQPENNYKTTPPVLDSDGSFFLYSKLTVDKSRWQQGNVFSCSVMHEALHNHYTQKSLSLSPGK", "assay": "ELISA on coated MICA*005 α3-Fc (1 µg/ml), HRP anti-human Fab secondary, OD450"}, "MICA008α3-Fc [2]": {"molecular_target": "T1, MICA008α3-Fc", "assay": "ELISA on coated MICA*008 α3-Fc (1 µg/ml), HRP anti-human Fab secondary, OD450", "remark": "listed apart in the source"}, "[3]": {"molecular_target": "T4, MICA on human tumor cells (A-375, A549, HCT-15, MDA-MB-231) (human, UniProt Q29983 24-383)", "T4 construct": "whole, on cells", "T4 sequence (looked up)": "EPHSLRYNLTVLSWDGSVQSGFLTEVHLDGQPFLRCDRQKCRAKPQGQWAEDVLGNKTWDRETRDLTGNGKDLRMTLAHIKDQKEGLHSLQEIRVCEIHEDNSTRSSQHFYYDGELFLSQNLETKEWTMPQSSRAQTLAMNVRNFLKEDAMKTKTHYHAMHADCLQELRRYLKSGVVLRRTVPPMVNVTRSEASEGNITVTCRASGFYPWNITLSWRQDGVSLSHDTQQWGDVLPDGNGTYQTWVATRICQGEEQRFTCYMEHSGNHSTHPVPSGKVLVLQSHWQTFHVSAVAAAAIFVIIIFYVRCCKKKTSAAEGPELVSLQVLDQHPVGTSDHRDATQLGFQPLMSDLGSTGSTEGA", "assay": "flow cytometry on A-375 cells, Alexa-647 goat anti-human secondary, % binding ratio", "experimental": "(§3) (2) Tumor cells were diluted to a density of 2×10⁶/mL with PBS and added into a 1.5 ml EP tube in a volume of 100 l/tube. 10 l/tube of goat serum was added into the EP tube; and blocking was conducted at 4° C. for 30 min. […] The tube was incubated at 4° C. for 30 min. 1 mL of PBS was added into the EP tube, and centrifugation was conducted 4° C. at a rate of 3,500 rpm for 5 min. The supernatant was removed. Then, the EP tube was washed once with the PBS, and the supernatant was removed after centrifugation. The cells were resuspended with PBS in a volume of 100 l/tube. An Alexa-647 labeled goat anti-human secondary antibody (purchased from Jackson lab) was added into the tube in a volume of 1 l/tube, and the tube was incubated in the dark at 4° C. for 30 min. The tube was washed twice with PBS, and the supernatant was removed after centrifugation. The cells were resuspended with the PBS in a volume of 200 l/tube, and detection was conducted by a flow cytometer. The results are as shown in FIG. 17A and FIG. 17B, FIG. 18A and FIG. 18B, FIG. 19A and FIG. 19B, and FIG. 20A and FIG. 20B."}, "[4]": {"molecular_target": "T4, MICA on human tumor cells (A-375, A549, …)", "assay": "flow cytometry on HCT-15 cells, Alexa-647 goat anti-human secondary, % binding ratio", "experimental": "as §3"}, "[5]": {"molecular_target": "T4, MICA on human tumor cells (A-375, A549, …)", "assay": "flow cytometry on MDA-MB-231 cells, Alexa-647 goat anti-human secondary, % binding ratio", "experimental": "as §3"}},
  "note": "Where two headings read alike, the source gives them in different places.",
  "data": [
    {"binder": "B1", "values": [
      {"measurement": "EC50 (read off the curve)", "setting": "MICA008α3-Fc [1]", "result": "~0.08", "unit": "µg/mL"},
      {"measurement": "EC50 (read off the curve)", "setting": "MICB005α3-Fc", "result": "~0.05", "unit": "µg/mL"},
      {"measurement": "EC50 (read off the curve)", "setting": "MICA005α3-Fc", "result": "~0.04", "unit": "µg/mL"},
      {"measurement": "EC50 (read off the curve)", "setting": "MICA008α3-Fc [2]", "result": "~0.06", "unit": "µg/mL"},
      {"measurement": "EC50 (read off the curve)", "setting": "[3]", "result": "~0.3", "unit": "µg/mL"},
      {"measurement": "EC50 (read off the curve)", "setting": "[4]", "result": "~0.1", "unit": "µg/mL"},
      {"measurement": "EC50 (read off the curve)", "setting": "[5]", "result": "~0.3", "unit": "µg/mL"}
    ]}
  ]
}
